Consider one molecule from article PMC5504490 (Journal of Proteome Research, 2017).

This assay deals with RNAP β′ subunit with 6his (rpoC-6his), in purified RNAP (B. subtilis (strain BS200), UniProt P37871 1-1199). As to the kind of experiment: cross-linking.
RNAP β′ subunit with 6his (rpoC-6his), in purified RNAP, sequence (P37871 whole entry): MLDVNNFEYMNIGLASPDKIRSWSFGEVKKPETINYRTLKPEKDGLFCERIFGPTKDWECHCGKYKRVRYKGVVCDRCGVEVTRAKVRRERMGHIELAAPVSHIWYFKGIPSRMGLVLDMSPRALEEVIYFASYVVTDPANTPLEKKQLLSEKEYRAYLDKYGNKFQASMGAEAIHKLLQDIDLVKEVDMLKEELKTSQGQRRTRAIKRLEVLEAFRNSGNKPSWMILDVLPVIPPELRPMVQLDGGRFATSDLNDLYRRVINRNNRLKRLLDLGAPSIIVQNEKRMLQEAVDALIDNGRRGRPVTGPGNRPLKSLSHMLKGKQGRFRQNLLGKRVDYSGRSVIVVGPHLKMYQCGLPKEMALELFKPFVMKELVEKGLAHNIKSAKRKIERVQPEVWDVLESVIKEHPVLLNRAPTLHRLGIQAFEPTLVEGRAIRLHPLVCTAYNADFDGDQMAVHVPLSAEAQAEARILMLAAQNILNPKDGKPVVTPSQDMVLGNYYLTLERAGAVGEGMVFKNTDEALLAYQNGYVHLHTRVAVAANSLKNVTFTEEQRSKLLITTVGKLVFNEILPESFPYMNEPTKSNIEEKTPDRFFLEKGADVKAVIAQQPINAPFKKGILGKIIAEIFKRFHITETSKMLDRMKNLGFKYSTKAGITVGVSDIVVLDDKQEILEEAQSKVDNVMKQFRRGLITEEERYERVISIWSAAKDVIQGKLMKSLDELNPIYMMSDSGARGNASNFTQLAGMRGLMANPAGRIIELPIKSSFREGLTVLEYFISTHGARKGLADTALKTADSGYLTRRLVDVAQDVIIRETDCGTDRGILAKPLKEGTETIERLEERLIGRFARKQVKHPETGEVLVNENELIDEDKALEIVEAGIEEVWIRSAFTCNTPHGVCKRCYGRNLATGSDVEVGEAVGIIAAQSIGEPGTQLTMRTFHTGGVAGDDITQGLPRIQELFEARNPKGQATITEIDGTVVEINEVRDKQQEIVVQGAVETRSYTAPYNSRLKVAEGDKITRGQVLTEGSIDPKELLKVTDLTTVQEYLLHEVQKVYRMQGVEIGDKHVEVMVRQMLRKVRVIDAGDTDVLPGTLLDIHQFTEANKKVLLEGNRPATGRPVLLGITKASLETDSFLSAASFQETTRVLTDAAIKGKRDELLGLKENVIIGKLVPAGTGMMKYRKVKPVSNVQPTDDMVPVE

B1: δ subunit (RpoE) of RNAP (natural protein)
chain: MGIKQYSQEELKEMALVEIAHELFEEHKKPVPFQELLNEIASLLGVKKEELGDRIAQFYTDLNIDGRFLALSDQTWGLRSWYPYDQLDEETQPTVKAKKKKAKKAVEEDLDLDEFEEIDEDDLDLDEVEEELDLEADDFDEEDLDEDDDDLEIEEDIIDEDDEDYDDEEEEIK
In the case of B1, the binding result is on record as “binds”.
